Measurements: PMC8674358
“And” between values parts separate entries of the source, which are not always exact repeats. Equal values may be shown once.

Legend:
[1] = biological target: IRE1-KR-0P: human IRE1α kinase-endoribonuclease module (residues G547-L977), unphosphorylated (human) (UniProt O75460); test: cross-linking; 1 μg IRE1-KR (~0.8 μM) or various concentrations in RNA cleavage buffer (20 mM HEPES pH 7.5, 50 mM K acetate, 1 mM Mg acetate, 0.05% Triton X-100), 250 μM DSS, 1 h on ice; SDS-PAGE and IRE1α immunoblot; also with CRUK-3 (5 µM), which augmented KR-0P dimerization and oligomerization
[2] = biological target: IRE1-KR-3P: human IRE1α kinase-endoribonuclease module (residues G547-L977), fully phosphorylated (human) (UniProt O75460); test: as above

## IRE1-KR-0P: human IRE1α kinase-endoribonuclease module (residues G547-L977), unphosphorylated (from UniProt O75460 547-977) (domain or fragment)
[1]
  stoichiometry N: 2

## IRE1-KR-3P: human IRE1α kinase-endoribonuclease module (residues G547-L977), fully phosphorylated (from UniProt O75460 547-977) (domain or fragment)
[2]
  stoichiometry N: 2 and 4 and 6
